# Patent publication US20230090247A1, “MOLECULES TARGETING RAS PROTEIN” (AELIN THERAPEUTICS, priority 2020, published 2023)
# Ends that are not written are not given here.
# Legend:
# [1] = biological target: T1, G12V mutant KRAS (Homo sapiens, UniProt P01116, G12V); assay: In vitro translation assay with streptavidin pull-down, KRAS G12V; assay type: binding; conditions: 10 μM biotinylated pept-in, Western blot
# T1 construct: made in house; host or cells: cell-free: PURExpress In Vitro Protein Synthesis Kit (New England Biolabs), linear T7 DNA template
# From the text: FIG. 5 illustrates in vitro translation assay showing target selectivity of RAS-targeting molecules (‘pept-ins’) according to certain embodiments of the present invention. In vitro translation assay producing either wild-type or different mutant KRAS in the presence of biotinylated RAS-targeting pept-ins. Streptavidin pull-down was used to capture the biotinylated pept-ins from the translation reaction and pulled-down fraction was probed for KRAS using Western blot. The biotinylated version of pept-in 04-004-N001, i.e. 04-004-N011, which harbours an APR window sequence derived from a wild-type APR, would be predicted to target all RAS proteins independently from their mutation status. […] Using the biotinylated versions of the biologically active pept-ins harbouring an APR window containing the G12V mutant site (04-006-N007, 04-015-N026 and 04-033-N003), however, pull-down was only observed for the G12V mutant KRAS and, in the case of 04-015-N026, for G12C mutant KRAS.
# In vitro translation assays were performed using the PURExpress® In Vitro Protein Synthesis Kit (New England Biolabs) according to the manufacturer's instructions. Briefly, linear DNA fragments containing T7 promotor and terminator sequences flanking the KRAS coding sequence were generated using PCR and purified using the MinElute PCR Purification Kit (Qiagen). 250 ng of linear DNA was subsequently used for the in vitro translation reaction, which was performed for 2 hours at 37° C. with shaking (1000 rpm). Indicated biotinylated pept-ins were mixed in the translation reactions from a 5 mM stock solution in 6M Urea to a final concentration of 10 μM. Upon completion of the translation reaction, biotinylated pept-ins were captured from the reaction mix using Streptavidin coated beads (Pierce) during 90 min at room temperature. Beads were next washed with TBS containing 0.1% Tween 20 and bound proteins were finally boiled off in 1×SDS loading dye (Bio-Rad) in TBS buffer. Proteins were resolved using Any kD 15-well Mini-PROTEAN gels (Bio-Rad) during SDS-PAGE and probed for KRAS after Western blotting using a mouse monoclonal KRAS-specific antibody (SC-30, Santa Cruz Biotechnology), which was detected with an HRP-coupled anti-mouse secondary antibody using chemiluminescence on a Bio-Rad Chemidoc MP imaging instrument.
# To mimic this in vitro, we devised an in vitro translation setup producing either wild-type or mutant (G12V, G12C, G12D or G13D) KRAS in the presence of biotinylated RAS-targeting pept-ins. This allowed us to perform a streptavidin pull-down to capture the biotinylated pept-ins from the translation reaction and perform SDS-PAGE and Western blotting to probe the pulled-down fraction for the presence of KRAS. […]
# [2] = biological target: KRAS G12V (human, UniProt P01116-2 1-188, limits assumed); assay: cell-based or functional assay
# [3] = system: RASless MEFs expressing KRAS WT; assay: RASless MEF spheroid efficacy, KRAS WT expressing MEFs; assay type: cell-based, mouse; conditions: spheroids, 5 days of exposure
# Experimental: (§1) FIG. 9 illustrates mutant-selective cellular efficacy using the RASless MEF panel. Graph showing mean±SD as well as individual assay IC50s from at least three independent experiments assessing the efficacy of the indicated RAS-target pept-ins on a panel of RASless MEFs, expressing either wild-type (WT), mutant G12V or G12C KRAS, or a V600E mutant BRAF in absence of endogenous K-, H-, and NRAS.
# (§2) For the single-dose viability screen on spheroid cultures, 1000 cells were seeded per well in black Ultra-Low Attachment (ULA) round-bottom 96-well plates (Corning) in […] full growth medium. […] Technical duplicates were included for all experimental pept-in conditions 5 days after treatment viability was assessed using the CellTiter Glo 3D reagent (Promega) according to the manufacturer's instructions, with the following adaptation: 80 μL of reagent was added per well. Readout was performed on a Clariostar plate reader (BMG). […]
# (§3) RAS mutant-selectivity on cellular efficacy was assessed using the isogenic RASless mouse embryonic fibroblast (MEF) panel. […] The panel assessed included the common clinical KRAS variants expressed as transgene (WT, G12V and G12C) and an additional cell line dependent on the expression of BRAF V600E for proliferation.
# (§4) Efficacy of RAS-targeting pept-ins on MEFs growing as spheroids was assessed after 5 days of exposure. […]
# [4] = system: SW620 xenograft of human KRAS G12V mutant colorectal cancer; assay: In vivo SW620 xenograft model; parameters: species or system Female NCr nu/nu mice
# Experimental: FIG. 12 illustrates that RAS-targeting pept-ins reduce tumor growth in a xenograft model of KRAS G12V mutant cancer. […] Pept-ins were dosed 3 times per week by intratumoral injection at either 20 or 200 μg once the tumors reached 100-150 mm^3. Model response was monitored by a positive control group receiving Irinotecan at 100 mg/kg, once per week for 3 weeks. Group sizes were N=6 for the non-treated group, N=5 for the vehicle groups and N=8 for the pept-in and positive control groups. Graphs show box plots of tumor volumes at day 22 after treatment started.
# Female NCr nu/nu mice (8 to 12 weeks) were inoculated with 1×10^6 SW620 tumor cells in 50% Matrigel subcutaneously in the hind flank. The cell Injection Volume was 0.1 mL/mouse. When tumors reached an average size of 100-150 mm^3 a pair match was performed, and treatment started. Group sizes were N=6 for the non-treated group, N=5 for the vehicle groups and N=8 for the pept-in and positive control groups. Tumor growth was monitored by caliper measurement twice per week. Model response was monitored by Irinotecan dosed once per week at 100 mg/kg intraperitoneally for 3 weeks.
# To assess whether the RAS-targeting pept-ins are able to attenuate growth of KRAS G12V-driven tumors in vivo, a subcutaneous xenograft model of human KRAS G12V colorectal cancer (SW620) was used. Once the tumors reached 100-150 mm^3 in size, pept-ins were administered directly into the tumor mass by intratumoral injection three times per week during two weeks at two different doses (20 μg and 200 μg).
# [5] = system: RASless MEFs expressing KRAS G12V; assay: RASless MEF spheroid efficacy, KRAS G12V expressing MEFs; assay type: cell-based, mouse; conditions: spheroids, 5 days of exposure, compared to KRAS WT and G12C MEFs
# Experimental: as §1, §2, §3, §4
# [6] = system: RASless MEFs expressing KRAS G12C; assay: RASless MEF spheroid efficacy, KRAS G12C expressing MEFs; assay type: cell-based, mouse; conditions: spheroids, 5 days of exposure
# Experimental: as §1, §2, §3, §4
# [7] = biological target: T2, G12C mutant KRAS (Homo sapiens, UniProt P01116, G12C); assay: In vitro translation assay with streptavidin pull-down, KRAS G12C; assay type: binding; conditions: 10 μM biotinylated pept-in, Western blot
# T2 construct: made in house; host or cells: cell-free: PURExpress In Vitro Protein Synthesis Kit (New England Biolabs), linear T7 DNA template
# From the text: (§5) FIG. 5 illustrates in vitro translation assay showing target selectivity of RAS-targeting molecules (‘pept-ins’) according to certain embodiments of the present invention. In vitro translation assay producing either wild-type or different mutant KRAS in the presence of biotinylated RAS-targeting pept-ins. Streptavidin pull-down was used to capture the biotinylated pept-ins from the translation reaction and pulled-down fraction was probed for KRAS using Western blot. The biotinylated version of pept-in 04-004-N001, i.e. 04-004-N011, which harbours an APR window sequence derived from a wild-type APR, would be predicted to target all RAS proteins independently from their mutation status. […]
# (§6) In vitro translation assays were performed using the PURExpress® In Vitro Protein Synthesis Kit (New England Biolabs) according to the manufacturer's instructions. […] Proteins were resolved using Any kD 15-well Mini-PROTEAN gels (Bio-Rad) during SDS-PAGE and probed for KRAS after Western blotting using a mouse monoclonal KRAS-specific antibody (SC-30, Santa Cruz Biotechnology), which was detected with an HRP-coupled anti-mouse secondary antibody using chemiluminescence on a Bio-Rad Chemidoc MP imaging instrument. […]
# [8] = biological target: T3, wild-type KRAS (Homo sapiens, UniProt P01116); assay: Cellular co-immunoprecipitation in KRAS wild-type expressing RASless MEFs; assay type: cell-based; conditions: 25 μM biotinylated pept-in, 16 hours
# T3 construct: host or cells: RASless mouse embryonic fibroblasts expressing a KRAS transgene
# Experimental: (§7) FIG. 10 illustrates cellular co-immunoprecipitation assays showing target engagement by RAS-targeting molecules (‘pept-ins’) according to certain embodiments of the present invention. Cellular target engagement of biotinylated pept-ins was assessed using co-immunoprecipitation assay. KRAS wild-type or mutant G12V expressing RASless MEFs. […] The biotinylated versions of the G12V-selective pept-ins, however, show preferential binding to the G12V mutant KRAS protein.
# (§8) Cellular co-immunoprecipitation assays were performed using either KRAS wild-type or mutant G12V expressing RASless MEFs (see elsewhere) or human NCI-H441 lung adenocarcinoma tumor cells and N-terminally biotinylated pept-ins. Cells were seeded at a density of 300,000 cells in a clear 6-well plate (Cellstar, Greiner). […] Next, cells were lysed with NP-40 lysis buffer (150 mM NaCl, 50 mM Tris HCl pH8, 1% IGEPAL (NP40), 1× Halt phosphatase/protease inhibitors (Thermo), 1 U/μl Universal Nuclease (Pierce)) and biotinylated pept-ins were captured with streptavidin-coated magnetic beads (Pierce) during 1 hours at room temperature. Beads were washed with NP40 lysis buffer at least 3 times, after which bound proteins were boiled off in 1×SDS loading dye (Bio-Rad) in NP40 lysis buffer. […]
# [9] = biological target: T4, mutant G12V KRAS (Homo sapiens, UniProt P01116, G12V); assay: Cellular co-immunoprecipitation in KRAS G12V expressing RASless MEFs; assay type: cell-based; conditions: 25 μM biotinylated pept-in, 16 hours
# T4 construct: host or cells: RASless mouse embryonic fibroblasts expressing a KRAS G12V transgene
# Experimental: as §7, §8
# [10] = biological target: T5, KRAS G13D mutant (Homo sapiens, UniProt P01116, G13D); assay: In vitro translation assay with streptavidin pull-down, KRAS G13D; assay type: binding; conditions: 10 μM biotinylated pept-in, Western blot
# T5 construct: made in house; host or cells: cell-free: PURExpress In Vitro Protein Synthesis Kit (New England Biolabs), linear T7 DNA template
# From the text: as §5, §6
# [11] = biological target: T6, KRAS G12D mutant (Homo sapiens, UniProt P01116, G12D); assay: In vitro translation assay with streptavidin pull-down, KRAS G12D; assay type: binding; conditions: 10 μM biotinylated pept-in, Western blot
# T6 construct: made in house; host or cells: cell-free: PURExpress In Vitro Protein Synthesis Kit (New England Biolabs), linear T7 DNA template
# From the text: as §5, §6
# [12] = biological target: T7, KRAS wild-type (Homo sapiens, UniProt P01116); assay: In vitro translation assay with streptavidin pull-down, KRAS wild-type; assay type: binding; conditions: 10 μM biotinylated pept-in, Western blot
# T7 construct: made in house; host or cells: cell-free: PURExpress In Vitro Protein Synthesis Kit (New England Biolabs), linear T7 DNA template
# From the text: as §5, §6
# [13] = 20 μg intratumoral injection three times per week
# [14] = 200 μg intratumoral injection three times per week
molecule,measurement,setting,value
"04-006-N007: biotinylated version of a biologically active pept-in harbouring an APR window containing the G12V mutant site (KVVVGAVKGSKVVVGAVK; also: biotinylated, site not given here)",streptavidin pull-down of KRAS G12V,[1],notable pull-down
SAH-SOS-1A (peptide),IC50 on viability of adherent NCI-H441 cells after 4 days exposure,[2],15 µM
Ac-KLSVFAIKGSKLSVFAIK-NH2 [04-004-N001],efficacy on MEFs expressing KRAS WT,[3],responded similarly as the BRAF V600E expressing RASless MEFs
same,average tumor volume at day 22 after treatment started,[4]; [13],only significant for the 200 μg dosing group
same,average tumor volume at day 22 after treatment started,[4]; [14],only significant for the 200 μg dosing group
same,efficacy on MEFs expressing KRAS G12V,[5],notable increased efficacy
same,efficacy on MEFs expressing KRAS G12C,[6],responded similarly as the BRAF V600E expressing RASless MEFs
CC(=O)N[C@@H](CCCCN)C(=O)N[C@H](C(=O)N[C@H](C(=O)N[C@H](C(=O)NCC(=O)N[C@@H](C)C(=O)N[C@H](C(=O)NCC(=O)N[C@@H](CCCCN)C(=O)NCC(=O)N[C@@H](CO)C(=O)N[C@@H](CCCCN)C(=O)N[C@H](C(=O)N[C@H](C(=O)N[C@H](C(=O)NCC(=O)N[C@@H](C)C(=O)N[C@H](C(=O)NCC(=O)N[C@@H](CCCCN)C(N)=O)C(C)C)C(C)C)C(C)C)C(C)C)C(C)C)C(C)C)C(C)C)C(C)C [04-015-N001],average tumor volume at day 22 after treatment started,[4]; [13],significant reduction
same,average tumor volume at day 22 after treatment started,[4]; [14],significant reduction
same,reduction in tumor growth (comparison between pept-ins),"[4]; intratumoral, 20 μg and 200 μg",strongest reduction in tumor growth
"04-033-N003: biotinylated version of a biologically active pept-in harbouring an APR window containing the G12V mutant site (KVVVGAVGVGKGSKVVVGAVGVGK; also: biotinylated, site not given here)",streptavidin pull-down of KRAS G12V,[1],notable pull-down
"04-015-N026: biotinylated version of a biologically active pept-in harbouring an APR window containing the G12V mutant site (KVVVGAVGKGSKVVVGAVGK; also: biotinylated, site not given here)",streptavidin pull-down of KRAS G12C,[7],notable pull-down
same,streptavidin pull-down of KRAS G12V,[1],notable pull-down
"04-004-N011: biotinylated version of pept-in 04-004-N001 (KLSVFAIKGSKLSVFAIK; also: biotinylated, site not given here)",co-precipitation of wild-type KRAS,[8],precipitate both wild-type and mutant G12V KRAS well
same,streptavidin pull-down of KRAS G12C,[7],efficient pull-down
same,streptavidin pull-down of KRAS G12V,[1],efficient pull-down
same,co-precipitation of mutant G12V KRAS,[9],precipitate both wild-type and mutant G12V KRAS well
same,binding (pull-down) to KRAS G13D,[10],less efficient
same,binding (pull-down) to KRAS G12D,[11],less efficient
same,streptavidin pull-down of KRAS wild-type,[12],efficient pull-down
